# Measured values as given in patent publication US20120316071A1 (published 2012).
# Where a chain is given by its changes, count along the chain named. Names and notes keep the numbering of the source.
# T1: rHuman Erythropoietin R/Fc Chimera, CF (human, UniProt P19235 25-250)
# T1 construct: Bought from R&D Systems; also called EPO R; EPO R/Fc; not shown: Fc of the bought chimera
# T1 sequence (looked up): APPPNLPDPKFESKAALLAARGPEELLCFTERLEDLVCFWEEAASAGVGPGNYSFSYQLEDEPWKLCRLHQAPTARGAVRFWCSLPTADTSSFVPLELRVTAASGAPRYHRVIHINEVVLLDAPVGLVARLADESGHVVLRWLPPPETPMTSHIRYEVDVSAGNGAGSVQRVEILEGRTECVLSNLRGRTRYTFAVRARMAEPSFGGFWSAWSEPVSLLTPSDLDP
# T2: rHuman Erythropoietin R/Fc Chimera, CF (R&D Systems Cat#963-ER) (human, UniProt P19235 25-250)
# T2 construct: Bought recombinant protein; also called EPO R; EPO R/Fc
# T2 sequence (looked up): T1 sequence (looked up)
# B1: Fab VH1-46_IGHD6-6*01_IGHJ1*01 S102A/S103P/S104F/H111F & L6_IGKJ1*01 (Fab, V domains shown)
# VH: QVQLVQSGAEVKKPGASVKVSCKASGYTFTSYYMHWVRQAPGQGLEWMGIINPSGGSTSYAQKFQGRVTMTRDTSTSTVYMELSSLRSEDTAVYYCAREEYAPFSAEYFQFWGQGTLVTVSS
# VL: not shown
# notes: also called H:APFF & L:wt; APFF
# B2: Fab VH1-46_IGHD6-6*01_IGHJ1*01 S102A/S103P/S104F/H111F & L6_IGKJ1*01 A51T (Fab, V domains shown)
# VH: B1 VH
# VL: EIVLTQSPATLSLSPGERATLSCRASQSVSSYLAWYQQKPGQAPRLLIYDTSNRATGIPARFSGSGSGTDFTLTISSLEPEDFAVYYCQQRSNWPPWTFGQGTKVEIKR
# notes: also called APFF & L6_IGKJ1*01 A51T
# B3: Fab VH1-46_IGHD6-6*01_IGHJ1*01 S102A/S103P/S104F/H111F (APFF) & L6_IGKJ1*01 S28F (Fab, V domains shown)
# VH: B1 VH
# VL: B2 VL with S28F, T51A
# notes: Fab made in E. coli; the variable domains were cloned into Plasmid A (CH1, His and Flag tags) and Plasmid C (kappa CL); also called APFF / S28F
# B4: Fab VH1-46_IGHD6-6*01_IGHJ1*01 S102A/S103P/S104F/H111F (APFF) & L6_IGKJ1*01 S28V (Fab, V domains shown)
# VH: B1 VH
# VL: B2 VL with S28V, T51A
# notes: Fab made in E. coli; the variable domains were cloned into Plasmid A (CH1, His and Flag tags) and Plasmid C (kappa CL); also called APFF / S28V
# B5: Fab VH1-46_IGHD6-6*01_IGHJ1*01 S102A/S103P/S104F/H111F (APFF) & L6_IGKJ1*01 S28L (Fab, V domains shown)
# VH: B1 VH
# VL: B2 VL with S28L, T51A
# notes: Fab made in E. coli; the variable domains were cloned into Plasmid A (CH1, His and Flag tags) and Plasmid C (kappa CL); also called APFF / S28L
# B6: Fab VH1-46_IGHD6-6*01_IGHJ1*01 S102A/S103P/S104F/H111F (APFF) & L6_IGKJ1*01 S28K (Fab, V domains shown)
# VH: B1 VH
# VL: B2 VL with S28K, T51A
# notes: Fab made in E. coli; the variable domains were cloned into Plasmid A (CH1, His and Flag tags) and Plasmid C (kappa CL); also called APFF / S28K
# B7: Fab VH1-46_IGHD6-6*01_IGHJ1*01 S102A/S103P/S104F/H111F (APFF) & L6_IGKJ1*01 S28P (Fab, V domains shown)
# VH: B1 VH
# VL: B2 VL with S28P, T51A
# notes: Fab made in E. coli; the variable domains were cloned into Plasmid A (CH1, His and Flag tags) and Plasmid C (kappa CL); also called APFF / S28P
# B8: Fab VH1-46_IGHD6-6*01_IGHJ1*01 S102A/S103P/S104F/H111F (APFF) & L6_IGKJ1*01 S31V (Fab, V domains shown)
# VH: B1 VH
# VL: B2 VL with S31V, T51A
# notes: Tested as Fab (CH1 with His6/Flag tags, kappa CL) made in E. coli; also called APFF / S31V
# B9: Fab VH1-46_IGHD6-6*01_IGHJ1*01 S102A/S103P/S104F/H111F (APFF) & L6_IGKJ1*01 S31D (Fab, V domains shown)
# VH: B1 VH
# VL: B2 VL with S31D, T51A
# notes: Tested as Fab (CH1 with His6/Flag tags, kappa CL) made in E. coli; also called APFF / S31D
# B10: Fab VH1-46_IGHD6-6*01_IGHJ1*01 S102A/S103P/S104F/H111F (APFF) & L6_IGKJ1*01 S31M (Fab, V domains shown)
# VH: B1 VH
# VL: B2 VL with S31M, T51A
# notes: Tested as Fab (CH1 with His6/Flag tags, kappa CL) made in E. coli; also called APFF / S31M
# B11: Fab VH1-46_IGHD6-6*01_IGHJ1*01 S102A/S103P/S104F/H111F (APFF) & L6_IGKJ1*01 S31H (Fab, V domains shown)
# VH: B1 VH
# VL: B2 VL with S31H, T51A
# notes: Tested as Fab (CH1 with His6/Flag tags, kappa CL) made in E. coli; also called APFF / S31H
# B12: Fab VH1-46_IGHD6-6*01_IGHJ1*01 S102A/S103P/S104F/H111F (APFF) & L6_IGKJ1*01 S31F (Fab, V domains shown)
# VH: B1 VH
# VL: B2 VL with S31F, T51A
# notes: Tested as Fab (CH1 with His6/Flag tags, kappa CL) made in E. coli; also called APFF / S31F
# B13: Fab VH1-46_IGHD6-6*01_IGHJ1*01 S102A/S103P/S104F/H111F (APFF) & L6_IGKJ1*01 S31I (Fab, V domains shown)
# VH: B1 VH
# VL: B2 VL with S31I, T51A
# notes: Tested as Fab (CH1 with His6/Flag tags, kappa CL) made in E. coli; also called APFF / S31I
# B14: Fab VH1-46_IGHD6-6*01_IGHJ1*01 S102A/S103P/S104F/H111F (APFF) & L6_IGKJ1*01 S31P (Fab, V domains shown)
# VH: B1 VH
# VL: B2 VL with S31P, T51A
# notes: Tested as Fab (CH1 with His6/Flag tags, kappa CL) made in E. coli; also called APFF / S31P
# B15: Fab VH1-46_IGHD6-6*01_IGHJ1*01 S102A/S103P/S104F/H111F (APFF) & L6_IGKJ1*01 S31L (Fab, V domains shown)
# VH: B1 VH
# VL: B2 VL with S31L, T51A
# notes: Tested as Fab (CH1 with His6/Flag tags, kappa CL) made in E. coli; also called APFF / S31L
# Molecular target: T3, Recombinant Human DLL4 (delta-like protein 4) (human, UniProt Q9NR61 27-524)
# T3 construct: also called rHuman DLL4; Delta-like 4
# Assay: ECL (MSD) binding assay, DLL4 immobilised, Fab at 10 nM
row,Signal [10 nM Fab],Binder
1,13500,B1
2,2850,B2

# Molecular target: T4, rHuman CD44/Fc Chimera, CF (human, UniProt P16070 21-220)
# T4 construct: Bought from R&D Systems; not shown: Fc of the bought chimera
# Assay: ECL Multispot (MSD) assay; antigen spotted on plate, Fab in solution;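 note: fab bound 1 h at 20 °C, detected by TAG-labelled antibody electrochemiluminescence, signal relative to each well's blank, ratio of 4 or more marks a hit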
row,ECL signal,Binder
1,402,B3
2,380,B4
3,365,B5
4,464,B6
5,365,B7

# Molecular target: T5, rHuman P-Cadherin/Fc Chimera, CF (human, UniProt P22223 108-654)
# T5 construct: Bought from R&D Systems; not shown: Fc of the bought chimera
# Assay: as above
row,ECL signal,Binder
1,336,B3
2,344,B4
3,418,B5
4,443,B6
5,605,B7

# Molecular target: T6, rHuman ErbB2/Fc Chimera, CF (human, UniProt P04626 23-652)
# T6 construct: Bought from R&D Systems; also called human epidermal growth factor 2 receptor; not shown: Fc of the bought chimera
# Assay: as above
row,ECL signal,Binder
1,242,B3
2,231,B4
3,222,B5
4,270,B6
5,427,B7

# Molecular target: T7, rHuman Notch-1/Fc Chimera, CF (human, UniProt P46531 19-526)
# T7 construct: Bought from R&D Systems; not shown: Fc of the bought chimera
# Assay: as above
row,ECL signal,Binder
1,367,B3
2,289,B4
3,392,B5
4,395,B6
5,416,B7

# Molecular target: T8, rHuman EGF R/Fc Chimera, CF (human, UniProt P00533 25-645)
# T8 construct: Bought from R&D Systems; also called epidermal growth factor receptor; not shown: Fc of the bought chimera
# Assay: as above
row,ECL signal,Binder
1,283,B3
2,327,B4
3,378,B5
4,386,B6
5,370,B7

# Molecular target: T9, rHuman IGF-1 sR, (IGF-1 sR), CF (human, UniProt P08069 31-932)
# T9 construct: Bought from R&D Systems; also called insulin-like growth factor-1 soluble receptor
# Assay: as above
row,ECL signal,Binder
1,275,B3
2,284,B4
3,346,B5
4,348,B6
5,392,B7

# Molecular target: T1, rHuman Erythropoietin R/Fc Chimera, CF
# Assay: as above
row,ECL signal,Binder
1,413,B3
2,446,B4
3,404,B5
4,477,B6
5,492,B7

# Molecular target: T10, Recombinant Human DLL4 (human, UniProt Q9NR61 27-524)
# T10 construct: Bought from R&D Systems; also called delta-like protein 4; rHuman DLL4
# Assay: as above
row,ECL signal,Binder
1,134000,B3
2,83100,B4
3,72300,B5
4,124000,B6
5,178000,B7

# Molecular target: T11, rHuman HGF R/c-MET/Fc Chimera, CF (human, UniProt P08581 25-932)
# T11 construct: Bought from R&D Systems; also called HGF R/Fc; hepatocyte growth factor receptor; not shown: Fc of the bought chimera
# T11 sequence (P08581 25-932, change not shown): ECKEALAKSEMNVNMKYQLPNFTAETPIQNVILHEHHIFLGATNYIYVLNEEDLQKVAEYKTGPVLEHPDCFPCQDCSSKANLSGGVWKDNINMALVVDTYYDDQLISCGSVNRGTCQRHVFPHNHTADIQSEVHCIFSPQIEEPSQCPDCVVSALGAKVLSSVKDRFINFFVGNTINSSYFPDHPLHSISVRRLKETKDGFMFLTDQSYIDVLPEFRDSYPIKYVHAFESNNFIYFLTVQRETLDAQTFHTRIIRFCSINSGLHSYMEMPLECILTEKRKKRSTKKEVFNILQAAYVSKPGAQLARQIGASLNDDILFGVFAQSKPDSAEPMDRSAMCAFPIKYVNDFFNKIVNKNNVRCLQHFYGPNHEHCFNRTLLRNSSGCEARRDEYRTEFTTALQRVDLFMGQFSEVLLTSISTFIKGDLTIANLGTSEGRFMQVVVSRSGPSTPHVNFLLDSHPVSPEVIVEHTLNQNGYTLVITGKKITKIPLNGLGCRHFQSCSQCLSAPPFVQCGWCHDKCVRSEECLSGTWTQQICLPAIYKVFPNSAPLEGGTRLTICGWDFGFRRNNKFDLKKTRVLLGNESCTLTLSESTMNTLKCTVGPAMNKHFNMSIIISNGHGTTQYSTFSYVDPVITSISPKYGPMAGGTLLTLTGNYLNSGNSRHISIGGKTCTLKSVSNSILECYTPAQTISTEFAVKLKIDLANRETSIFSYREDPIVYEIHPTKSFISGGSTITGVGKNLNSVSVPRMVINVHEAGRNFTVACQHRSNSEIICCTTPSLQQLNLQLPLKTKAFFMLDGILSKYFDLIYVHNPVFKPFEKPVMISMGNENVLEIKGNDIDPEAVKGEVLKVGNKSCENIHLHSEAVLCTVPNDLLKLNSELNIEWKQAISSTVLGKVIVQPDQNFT
# Assay: as above
row,ECL signal,Binder
1,223,B3
2,338,B4
3,317,B5
4,355,B6
5,318,B7

# Molecular target: T2, rHuman Erythropoietin R/Fc Chimera, CF …
# Assay: ECL multispot (MSD) binding assay, antigen spotted on plate;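 note: purified Fab incubated 1 h at 20 °C on antigen spots, detected with TAG-labelled antibody, electrochemiluminescence compared with each well's blank, signal-to-blank ratio ≥4 counted as hit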
row,ECL signal,Binder
1,509,B8
2,596,B9
3,573,B10
4,504,B11
5,599,B12
6,500,B13
7,594,B14
8,427,B15

# Molecular target: T12, rHuman EGF R/Fc Chimera, CF (R&D Systems Cat#344-ER) (human, UniProt P00533 25-645)
# T12 construct: Bought recombinant protein; also called epidermal growth factor receptor
# Assay: as above
row,ECL signal,Binder
1,363,B8
2,438,B9
3,380,B10
4,373,B11
5,342,B12
6,363,B13
7,488,B14
8,375,B15

# Molecular target: T13, rHuman Notch-1/Fc Chimera, CF (R&D Systems Cat#3647-TK) (human, UniProt P46531 19-526)
# T13 construct: Bought recombinant protein
# Assay: as above
row,ECL signal,Binder
1,374,B8
2,510,B9
3,474,B10
4,421,B11
5,349,B12
6,421,B13
7,461,B14
8,365,B15

# Molecular target: T14, rHuman P-Cadherin/Fc Chimera, CF (R&D Systems Cat#861-PC) (human, UniProt P22223 108-654)
# T14 construct: Bought recombinant protein
# Assay: as above
row,ECL signal,Binder
1,360,B8
2,451,B9
3,510,B10
4,480,B11
5,369,B12
6,444,B13
7,493,B14
8,346,B15

# Molecular target: T15, rHuman IGF-1 sR, (IGF-1 sR), CF (R&D Systems Cat#391-GR) (human, UniProt P08069 31-932)
# T15 construct: Bought recombinant soluble receptor; also called insulin-like growth factor-1 soluble receptor
# Assay: as above
row,ECL signal,Binder
1,335,B8
2,407,B9
3,445,B10
4,350,B11
5,267,B12
6,365,B13
7,404,B14
8,405,B15

# Molecular target: T16, rHuman ErbB2/Fc Chimera, CF (R&D Systems Cat#1129-ER) (human, UniProt P04626 23-652)
# T16 construct: Bought recombinant protein; also called human epidermal growth factor 2 receptor
# Assay: as above
row,ECL signal,Binder
1,300,B8
2,479,B9
3,352,B10
4,307,B11
5,295,B12
6,222,B13
7,372,B14
8,288,B15

# Molecular target: T17, rHuman HGF R/c-MET/Fc Chimera, CF (R&D Systems Cat#358-MT/CF) (human, UniProt P08581 25-932)
# T17 construct: Bought recombinant protein; also called HGF R/Fc; hepatocyte growth factor receptor
# T17 sequence (P08581 25-932, change not shown): as above
# Assay: as above
row,ECL signal,Binder
1,288,B8
2,429,B9
3,293,B10
4,352,B11
5,280,B12
6,303,B13
7,431,B14
8,319,B15

# Molecular target: T18, Recombinant Human DLL4 (R&D Systems Cat#1506-D4/CF) (human, UniProt Q9NR61 27-524)
# T18 construct: Bought recombinant protein; also called delta-like protein 4; rHuman DLL4
# Assay: as above
row,ECL signal,Binder
1,176000,B8
2,154000,B9
3,167000,B10
4,221000,B11
5,189000,B12
6,174000,B13
7,53300,B14
8,155000,B15

# Molecular target: T19, rHuman CD44/Fc Chimera, CF (R&D Systems Cat#3660-CD) (human, UniProt P16070 21-220)
# T19 construct: Bought recombinant protein
# Assay: as above
row,ECL signal,Binder
1,384,B8
2,471,B9
3,488,B10
4,426,B11
5,256,B12
6,506,B13
7,466,B14
8,371,B15
